Assay results: PMC9670587

Experiments:
FcγRIIA = FcγRIIA (UniProt P12318)
FcγRIIIA = FcγRIIIA (UniProt P08637)
Chain of UniProt P08637 (P08637 17-254): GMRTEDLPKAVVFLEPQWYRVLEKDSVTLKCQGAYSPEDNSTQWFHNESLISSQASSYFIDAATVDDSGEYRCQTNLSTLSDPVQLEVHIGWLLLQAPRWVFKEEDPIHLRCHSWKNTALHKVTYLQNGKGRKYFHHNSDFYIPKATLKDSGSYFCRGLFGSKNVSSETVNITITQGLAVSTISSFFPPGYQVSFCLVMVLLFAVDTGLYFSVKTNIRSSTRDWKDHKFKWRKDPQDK

Chain of UniProt P12318 (P12318 34-317): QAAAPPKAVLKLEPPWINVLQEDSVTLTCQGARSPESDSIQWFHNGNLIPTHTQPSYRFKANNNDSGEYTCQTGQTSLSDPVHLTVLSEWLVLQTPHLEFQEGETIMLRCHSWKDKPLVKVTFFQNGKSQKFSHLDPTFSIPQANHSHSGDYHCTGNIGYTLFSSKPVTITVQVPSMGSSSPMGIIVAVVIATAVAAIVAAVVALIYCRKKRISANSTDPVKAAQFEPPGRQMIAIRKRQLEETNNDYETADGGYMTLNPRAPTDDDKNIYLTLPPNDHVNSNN

antibody-dependent cellular phagocytosis (ADCP), EC50 (FcγRIIA): 0.139 nM
antibody-dependent cellular phagocytosis (ADCP), EC50 (FcγRIIIA): 0.139 nM
Substance: IMM01, recombinant SIRPα-Fc fusion protein
